Reference: publication PMC11055898

Legend:
Assay in all cases: SPR
[1] = target: human CD64 (FcgRI) (human) (UniProt P12314)
[2] = target: mouse CD64
[3] = target: human FcRn
[4] = target: mouse CD16-2
[5] = target: mouse neonatal Fc receptor (FcRn) (mouse) (UniProt Q61559)
mouse neonatal Fc receptor (FcRn) (mouse), sequence (Q61559 22-297): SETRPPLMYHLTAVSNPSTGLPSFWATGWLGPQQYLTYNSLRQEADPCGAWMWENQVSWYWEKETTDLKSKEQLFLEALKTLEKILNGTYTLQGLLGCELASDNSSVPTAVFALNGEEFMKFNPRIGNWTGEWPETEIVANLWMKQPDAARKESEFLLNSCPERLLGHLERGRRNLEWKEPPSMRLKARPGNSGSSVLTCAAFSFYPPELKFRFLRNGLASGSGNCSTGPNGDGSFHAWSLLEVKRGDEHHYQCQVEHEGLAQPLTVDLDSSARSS

human CD64 (FcgRI) (human), sequence (P12314 16-374): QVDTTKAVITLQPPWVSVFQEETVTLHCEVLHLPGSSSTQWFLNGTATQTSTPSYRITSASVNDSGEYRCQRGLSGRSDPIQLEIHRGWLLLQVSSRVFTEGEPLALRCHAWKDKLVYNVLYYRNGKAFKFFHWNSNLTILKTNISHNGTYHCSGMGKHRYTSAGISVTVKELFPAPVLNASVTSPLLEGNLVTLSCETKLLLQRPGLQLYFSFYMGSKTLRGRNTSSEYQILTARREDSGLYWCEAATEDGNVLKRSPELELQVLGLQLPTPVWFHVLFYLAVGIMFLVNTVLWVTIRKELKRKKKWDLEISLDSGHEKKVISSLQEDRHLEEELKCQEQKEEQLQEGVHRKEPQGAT
human IgG3 (antibody specific for the receptor binding domain of SARS-CoV-2, clone not named), sequence (P01860 whole entry, looked up, the tested form may be a part): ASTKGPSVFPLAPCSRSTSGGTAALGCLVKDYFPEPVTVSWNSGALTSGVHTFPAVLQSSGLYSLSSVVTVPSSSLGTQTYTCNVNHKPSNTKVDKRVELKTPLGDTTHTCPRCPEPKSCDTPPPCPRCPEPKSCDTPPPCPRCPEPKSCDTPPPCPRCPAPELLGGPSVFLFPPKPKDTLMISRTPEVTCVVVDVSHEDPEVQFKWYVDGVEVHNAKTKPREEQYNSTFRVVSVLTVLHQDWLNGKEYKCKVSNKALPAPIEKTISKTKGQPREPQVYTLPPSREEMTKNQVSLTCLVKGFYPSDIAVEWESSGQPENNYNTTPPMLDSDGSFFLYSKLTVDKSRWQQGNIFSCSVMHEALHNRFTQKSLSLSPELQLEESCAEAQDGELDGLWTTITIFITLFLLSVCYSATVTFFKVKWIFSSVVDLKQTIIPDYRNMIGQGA

| Substance | Kd [1] [nM] | koff [1] [s⁻¹] | Kd [2] [nM] | koff [2] [s⁻¹] | Kd [3] [nM] | koff [3] [s⁻¹] | Kd [4] [nM] | koff [4] [s⁻¹] | Kd [5] [nM] | koff [5] [s⁻¹] |
| --- | --- | --- | --- | --- | --- | --- | --- | --- | --- | --- |
| human IgG3 (antibody specific for the receptor binding domain of SARS-CoV-2, clone not named) (from UniProt P01860) | 8.1 | 0.00033 | 14 | 0.0014 | – | – | – | – | – | – |
| human IgG1 (antibody specific for the receptor binding domain of SARS-CoV-2, clone not named) (from UniProt P01857) | 2.4 | 0.00014 | 246 | 0.062 | 300 | 0.088 | 415 | 0.0275 | 9.9 | 0.001 |
